Laboratory results reported in patent publication US20220153790A1 (TECHNISCHE UNIVERSIT T M NCHEN, published 2022).

Key:
[1] = target: T1, unglycosylated, monobiotinylated extracellular domain of human CD98hc produced in E. coli (human, UniProt P08195 111-529, single biotin on the N-terminal biotin acceptor peptide (BAP)); test: SPR
T1 construct: also called hCD98hcED; CD98hcED; not shown: N-terminal biotin acceptor peptide (BAP) from pASK-IBA5(+)-BAP-hCD98hcED
T1 sequence: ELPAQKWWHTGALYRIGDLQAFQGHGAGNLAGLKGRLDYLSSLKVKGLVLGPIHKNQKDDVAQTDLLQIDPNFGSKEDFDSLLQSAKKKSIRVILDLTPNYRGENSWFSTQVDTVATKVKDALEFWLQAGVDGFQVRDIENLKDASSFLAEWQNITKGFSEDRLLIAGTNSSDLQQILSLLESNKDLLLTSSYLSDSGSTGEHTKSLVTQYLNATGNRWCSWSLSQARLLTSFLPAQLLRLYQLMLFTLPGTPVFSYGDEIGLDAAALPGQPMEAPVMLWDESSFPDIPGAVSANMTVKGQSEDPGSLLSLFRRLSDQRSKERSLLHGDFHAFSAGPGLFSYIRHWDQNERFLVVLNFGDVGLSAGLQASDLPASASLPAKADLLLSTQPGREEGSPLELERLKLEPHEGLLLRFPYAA
Procedure: (§1) Real time surface plasmon resonance (SPR) spectroscopy was performed on a BIAcore 2000 system (BIAcore, Uppsala, Sweden) at 25° C. using HBS-T (20 mM Hepes/NaOH pH 7.5, 150 mM NaCl, 0.005% v/v Tween20) as running buffer. The purified biotinylated m/hCD98hcED (3 μg/ml protein solution in HBS-T produced in HEK cells or E. coli) was immobilized (ARU-225) via streptavidin on a CAP sensorchip of the Biotin CAPture kit (GE Healthcare). SPR single cycle kinetic experiments were performed using five consecutive injections of a 1:2 dilution series of the purified lipocalin variant at a flow rate of 25 μl/min, with 288 s contact time and 3500 s dissociation time after the fifth injection. For multi cycle kinetic experiments, eight samples from a consecutive 1:2 dilution series of the purified lipocalin variant were measured. Rate constants of association and dissociation were calculated from reference-corrected sensorgrams by fitting to a global 1:1 Langmuir binding model using BIAevaluation software (BIAcore). The equilibrium dissociation constants (KD value) were calculated as the quotient koff/kₒₙ. To test competitive binding of the lipocalin variants P3D11, P3A12 and P1E4 to glycosylated hCD98hcED, 100 nM of P3D11 was first injected and followed by a subsequent injection of either 100 nM P3A12 or 100 nM P1E4. HBS-T injections served as negative control.

[2] = target: T1, unglycosylated, monobiotinylated …; test: SPR (BIAcore 2000), biotinylated hCD98hcED captured on CAP chip, single cycle kinetics
Procedure: as §1

[3] = target: T1, unglycosylated, monobiotinylated …; test: SPR, complex dissociation half-life
Procedure: as §1

[4] = target: T2, fully glycosylated, monobiotinylated extracellular domain of human CD98hc produced in HEK 293E cells (human, UniProt P08195 111-529, N-linked glycosylation at Asn264, 280, 323 and 405 (UniProt P08195-2); single biotin on the N-terminal BAP); test: SPR, complex dissociation half-life
T2 construct: also called hCD98hcEDg; CD98hcEDg; not shown: N-terminal His6 tag and biotin acceptor peptide (BAP) from pDSG-BM-His6-BAP-hCD98hcEDg
T2 sequence: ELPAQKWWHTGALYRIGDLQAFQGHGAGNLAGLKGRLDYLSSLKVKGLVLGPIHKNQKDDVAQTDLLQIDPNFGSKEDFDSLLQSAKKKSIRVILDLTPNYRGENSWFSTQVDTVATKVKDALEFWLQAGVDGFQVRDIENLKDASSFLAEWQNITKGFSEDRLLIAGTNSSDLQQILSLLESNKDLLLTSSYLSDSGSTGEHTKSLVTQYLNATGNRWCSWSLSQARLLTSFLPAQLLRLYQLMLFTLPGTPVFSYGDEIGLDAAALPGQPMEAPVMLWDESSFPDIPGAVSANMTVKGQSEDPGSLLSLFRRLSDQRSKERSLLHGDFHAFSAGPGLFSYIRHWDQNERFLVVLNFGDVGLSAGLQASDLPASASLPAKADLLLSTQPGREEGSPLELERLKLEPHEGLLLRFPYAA
Procedure: as §1

[5] = target: T2, fully glycosylated, monobiotinylated …; test: SPR, biotinylated hCD98hcEDg captured on CAP chip
Procedure: as §1

[6] = target: T1, unglycosylated, monobiotinylated …; test: not given
[7] = target: T2, fully glycosylated, monobiotinylated …; test: SPR, comparison of glycosylated and unglycosylated ectodomain
Procedure: as §1

[8] = target: T1, unglycosylated, monobiotinylated …; test: SPR (BIAcore 2000), biotinylated hCD98hcED captured on CAP chip, multiple cycle kinetics
Procedure: as §1

[9] = target: T2, fully glycosylated, monobiotinylated …; test: not given
[10] = target: T2, fully glycosylated, monobiotinylated …; test: flow cytometry, soluble hCD98hcEDg at 10-fold molar excess as competitor of cell binding
Procedure: Cells growing in suspension (Ramos, Raji and SU-DHL-4) were directly washed with PBS (w/o Ca²⁺ and Mg²⁺). For each measurement, 250,000 viable cells were resuspended in 250 μl FACS buffer (PBS+10% (v/v) FBS) containing 1 μM D11vs-PAS200-Cy5.5 (cf. Supplementary information) and incubated for 1 h at 4° C. Competition experiments were performed by adding a 10-fold molar concentration of either unlabeled D11vs-PAS200 or the soluble glycosylated hCD98hcED. After incubation, cells were washed three times in PBS and finally resuspended in 250 μl FACS buffer. Flow cytofluorometric experiments were performed on a FACSAria Ilu instrument using an excitation wavelength of 650 nm and an emission band-path filter of 780/60 nm.
As expected, no fluorescence staining for any of the tested cell lines was detected when using the Cy5.5-labeled PASylated wtLcn2.

B1: lipocalin variant D11vs (designed binder)
chain: QDSTSDLIPAPPLSKVPLQQNFQDNQFHGKWYVVGRAGNTGLREDKDPGKMFATIYELKEDKSYNVTYVWSGQKKCMYSIVTFVPGSQPGEFTLGNIKSAPGRTSWLVRVVSTNYNQHAMVFFKSVTQNREGFAITLYGRTKELTSELKENFIRFSKSLGLPENHIVFPVPIDQCIDG
notes: P3D11 variant with Phe71Ser and Gly81Val; also called Anticalin D11vs; not shown: C-terminal His6-tag (plasmid pNGAL118) as for the other soluble lipocalin variants
- fold increase of affinity against P3D11 [1]: ~3 fold
- Kd [2]: 0.05 nM
- koff [2]: 2.6e-05 s⁻¹
- kon [2]: 450000 M⁻¹ s⁻¹
- T½ [3]: 7.37 h
- T1/2 [4]: 8.72 h
- Kd [5]: 0.05 nM
- koff [5]: 2.2e-05 s⁻¹
- kon [5]: 460000 M⁻¹ s⁻¹

B2: SEQ ID NO 4 (designed binder)
chain: QDSTSDLIPAPPLSKVPLQQNFQDNQFHGKWYVVGRAGNTGLREDKDPGKMFATIYELKEDKSYNVTYVWSGQKKCMYSIVTFVPGSQPGEFTLGNIKSAPGRTSWLVRVVSTNYNQHALVFFKSVTQNREGFAITLYGRTKELTSELKENFIRFSKSLGLPENHIVFPVPIDQCIDG
- Kd [6]: ≤ 5 nM

B3: lipocalin variant P1E4 (designed binder)
chain: QDSTSDLIPAPPLSKVPLQQNFQDNQFHGKWYVVGIAGNSMLREDKDPFKMTATIYELKEDKSYNVTRVRFDDKKCLYRILTFVPGSQPGEFTLGNIKSRPGWTSWLVRVVSTNYNQHAMVFFKRVHQNRETFWITLYGRTKELTSELKENFIRFSKSLGLPENHIVFPVPIDQCIDG
notes: produced soluble in E. coli JM83, monomeric; also called Anticalin P1E4; not shown: C-terminal His6-tag (plasmid pNGAL118)
- fold decrease of binding by N-glycosylation (hCD98hcEDg against hCD98hcED) [7]: ~100 fold
- Kd [8]: 4.5 nM
- koff [8]: 0.011 s⁻¹
- kon [8]: 2.5e+06 M⁻¹ s⁻¹
- Kd [9]: ≤ 200 nM
- T½ [3]: 0.0183 h
- T1/2 [4]: < 0.0167 h
- Kd [5]: 162 nM
- koff [5]: 0.09 s⁻¹
- kon [5]: 560000 M⁻¹ s⁻¹

B4: D11vs-PAS200-Cy5.5 (designed binder)
chain: QDSTSDLIPAPPLSKVPLQQNFQDNQFHGKWYVVGRAGNTGLREDKDPGKMFATIYELKEDKSYNVTYVWSGQKKCMYSIVTFVPGSQPGEFTLGNIKSAPGRTSWLVRVVSTNYNQHAMVFFKSVTQNREGFAITLYGRTKELTSELKENFIRFSKSLGLPENHIVFPVPIDQCIDG
modifications: Sulfo-Cyanine5.5 coupled by maleimide chemistry to the engineered C-terminal Cys
notes: also called Cy5.5 labeled PASylated D11vs; Cy5.5-labeled D11vs-PAS200; not shown: C-terminal PAS200 polypeptide (200 Pro, Ala and Ser residues) with an engineered Cys at its end
- binding result [10]: binds
